Test results reported in article PMC4517315, “Functional properties and structural characterization of rice δ^1-pyrroline-5-carboxylate reductase” (Frontiers in Plant Science, 2015).

Experiments:
[1] = biological target: T1, rice δ^1-pyrroline-5-carboxylate reductase (Oryza sativa, UniProt Q8GT01); experiment: product inhibition of purified recombinant enzyme, NADH-dependent P5C reduction at […] nm; Lineweaver-Burk/non-linear regression; assay type: biochemical
T1 construct: gene Os01g0948400

[2] = biological target: Oryza sativa P5C reductase, from pMCSG68, for crystallization (Oryza sativa (japonica rice)); experiment: crystal structure; 3.40 Å, space group P2(1), two decamers in the asymmetric unit; crystals from 100 mM Tris-HCl pH 8.5, 200 mM MgCl2, 18% PEG 8000, 19°C; molecular replacement with a homology model based on PDB 2izz
[3] = biological target: rice (Oryza sativa L.) δ1-pyrroline-5-carboxylate (P5C) reductase, from pET151-OsP5CR, TEV-cleaved (Oryza sativa (japonica rice)); experiment: SEC; gel permeation on Superose 12 HR 10/30, 50 mM Tris-HCl pH 7.75, 250 mM NaCl, 100 uL of protein at 10 mg/mL, calibrated with molecular weight markers; identical elution patterns up to 1 M NaCl (data not shown); size of the oligomer from the apparent mass
[4] = substrate: NC(=O)C1=CN([C@@H]2O[C@H](COP(=O)(O)OP(=O)(O)OC[C@H]3O[C@@H](n4cnc5c(N)ncnc54)[C@H](OP(=O)(O)O)[C@@H]3O)[C@@H](O)[C@H]2O)C=CC1; experiment: purified protein; details: varied: cofactor
[5] = substrate: NC(=O)C1=CN([C@@H]2O[C@H](COP(=O)(O)OP(=O)(O)OC[C@H]3O[C@@H](n4cnc5c(N)ncnc54)[C@H](O)[C@@H]3O)[C@@H](O)[C@H]2O)C=CC1; experiment: purified protein; details: P5C binding is required to allow NADH to enter the active site; varied: cofactor
[6] = substrate: O=C(O)C1CCC=N1; experiment: purified protein; assay type: biochemical, Oryza sativa; details: NADPH P5C binds before NADPH (ordered substrate binding)

Molecule: NC(=O)c1ccc[n+]([C@@H]2O[C@H](COP(=O)([O-])OP(=O)(O)OC[C@H]3O[C@@H](n4cnc5c(N)ncnc54)[C@H](OP(=O)(O)O)[C@@H]3O)[C@@H](O)[C@H]2O)c1 [NADP^+]
- Ki [1]: 0.00773 ± 0.00069 mM

Molecule: O=C(O)[C@@H]1CCCN1 [L-proline]
- Ki [1]: 20.2 ± 1 mM

Molecule: Oryza sativa P5C reductase, from pMCSG68, for crystallization (enzyme)
- stoichiometry N [2]: 10 subunits

Molecule: rice (Oryza sativa L.) δ1-pyrroline-5-carboxylate (P5C) reductase, from pET151-OsP5CR, TEV-cleaved (enzyme)
- stoichiometry N [3]: 14 subunits

B1: rice δ^1-pyrroline-5-carboxylate reductase (Oryza sativa Japonica Group) (protein)
chain: MAAPPQPVPAPAAASPEVFRLGFIGPGNLAESIARGVAASGVLPATAIRTAPHRRPERAEAFSSIGAHILETNAQVVDDSDVIVISVKPQIVRQVLVELKPLLSEEKLLVSIAAGIKMEDLQGWSGHRRFIRVMPNTPSAVGQAASVMCLGEMATENDENRVRSLFSAIGKVWTAEEKYFDAVTGLSGSGPAYIFLAIEAMADGGVAAGLPRDLALGLASQTVLGAATMVNKTGKHPGQLKDMVTSPAGTTITGIQELEKGAFRGTLINAVVAATKRCRELSQS
- Km [4]: 49.4 ± 1.8 µM
- Vmax [4]: 11.68 ± 0.16 μkat (mg protein)^-1
- Km [5]: 806 ± 89 µM
- Vmax [5]: 158.3 ± 13.2 μkat (mg protein)^-1
- Km [6]: 28.8 ± 1.7 µM
